Measurements as given in patent publication US20140087995A1 (published 2014).
Numbered stars: 1 amine (or outer) side, 2 acyl side, 3 side chain; on linkers, the order of the positions; unused ones are H or OH. Bridge positions count the residues as written; N and C are the ends. Side chains are listed from the residue outwards. Ends that are not written are not given here. * marks the point of attachment. C20 diacid = O=C(O)CCCCCCCCCCCCCCCCCCC(=O)*; γGlu = O=C(O)[C@H](CCC(=O)[*:2])N[*:1]; AEEA = NCCOCCOCC(=O)O

Experiments:
rat calcitonin receptor [1] = target: T1, rat calcitonin receptor (rat, UniProt P32214 25-516); test: ratio IC50 rat calcitonin receptor / IC50 rat amylin receptor
T1 construct: whole, on cells; Cell membranes of transiently transfected BHK tk'ts 13 cells (Assay VIII); also called rCTR; rCT
T1 sequence (looked up): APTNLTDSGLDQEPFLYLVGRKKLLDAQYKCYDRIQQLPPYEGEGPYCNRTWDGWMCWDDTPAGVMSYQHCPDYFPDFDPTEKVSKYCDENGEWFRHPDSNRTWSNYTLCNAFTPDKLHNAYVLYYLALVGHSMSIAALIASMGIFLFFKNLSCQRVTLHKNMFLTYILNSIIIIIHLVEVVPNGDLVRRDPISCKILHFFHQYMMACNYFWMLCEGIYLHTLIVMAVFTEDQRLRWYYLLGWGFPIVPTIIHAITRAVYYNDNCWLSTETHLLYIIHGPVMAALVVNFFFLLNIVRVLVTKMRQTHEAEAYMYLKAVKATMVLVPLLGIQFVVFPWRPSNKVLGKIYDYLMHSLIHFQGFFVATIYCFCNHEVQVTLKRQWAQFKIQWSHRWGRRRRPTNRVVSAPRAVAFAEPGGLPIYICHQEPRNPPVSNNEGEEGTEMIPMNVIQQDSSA

rat calcitonin receptor [2] = target: T1, rat calcitonin receptor; test: SPA competition vs 125I-calcitonin, membranes with rat CTR (Assay VIII)
[3] = target: T2, rat amylin receptor (rat calcitonin receptor + rat RAMP 3) (rat, UniProt P32214 25-516; Q9JJ73 23-147); test: SPA competition vs 125I-rat amylin, membranes with rat CTR + rat RAMP3 (Assay VI)
T2 construct: whole, on cells; Cell membranes of transiently transfected BHK tk'ts 13 cells (Assay VI); also called rAmylin-R; rat amylin 3(a) receptor
T2 sequence (looked up) 1: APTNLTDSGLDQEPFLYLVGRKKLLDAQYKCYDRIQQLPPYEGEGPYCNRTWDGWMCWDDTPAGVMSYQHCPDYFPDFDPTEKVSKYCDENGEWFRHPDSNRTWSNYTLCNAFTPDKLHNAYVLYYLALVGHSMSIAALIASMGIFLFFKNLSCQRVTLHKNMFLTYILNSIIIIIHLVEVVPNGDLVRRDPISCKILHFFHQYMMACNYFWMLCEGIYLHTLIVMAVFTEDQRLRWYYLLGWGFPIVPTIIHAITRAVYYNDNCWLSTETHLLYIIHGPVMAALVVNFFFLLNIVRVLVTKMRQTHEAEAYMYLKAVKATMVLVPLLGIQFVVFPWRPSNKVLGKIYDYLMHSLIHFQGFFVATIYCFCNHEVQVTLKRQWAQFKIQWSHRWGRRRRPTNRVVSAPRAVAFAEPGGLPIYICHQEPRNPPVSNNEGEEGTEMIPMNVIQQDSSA
T2 sequence (looked up) 2: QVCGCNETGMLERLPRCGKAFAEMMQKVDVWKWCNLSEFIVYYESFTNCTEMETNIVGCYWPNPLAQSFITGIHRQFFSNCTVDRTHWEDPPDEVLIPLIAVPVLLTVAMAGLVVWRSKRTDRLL

B1: N^ε1-[2-[2-[2-[[(4S)-4-carboxy-4-(19-carboxynonadecanoylamino)butanoyl]amino]ethoxy]ethoxy]acetyl]-[Arg17,Pro21,Pro27,Pro34,His35]-h-amylin (peptide)
peptide: K([AEEA-γGlu-C20 diacid])CNTATCATQRLANFLRHSSPNFGAIPSSTNVGPHTY-NH2
modifications: disulfide 2-7; N-terminus assumed
SMILES: CC[C@H](C)[C@H](NC(=O)[C@H](C)NC(=O)CNC(=O)[C@H](Cc1ccccc1)NC(=O)[C@H](CC(N)=O)NC(=O)[C@@H]1CCCN1C(=O)[C@H](CO)NC(=O)[C@H](CO)NC(=O)[C@H](Cc1c[nH]cn1)NC(=O)[C@H](CCCNC(=N)N)NC(=O)[C@H](CC(C)C)NC(=O)[C@H](Cc1ccccc1)NC(=O)[C@H](CC(N)=O)NC(=O)[C@H](C)NC(=O)[C@H](CC(C)C)NC(=O)[C@H](CCCNC(=N)N)NC(=O)[C@H](CCC(N)=O)NC(=O)[C@@H](NC(=O)[C@H](C)NC(=O)[C@@H]1CSSC[C@H](NC(=O)[C@@H](N)CCCCNC(=O)COCCOCCNC(=O)CC[C@H](NC(=O)CCCCCCCCCCCCCCCCCCC(=O)O)C(=O)O)C(=O)N[C@@H](CC(N)=O)C(=O)N[C@@H]([C@@H](C)O)C(=O)N[C@@H](C)C(=O)N[C@@H]([C@@H](C)O)C(=O)N1)[C@@H](C)O)C(=O)N1CCC[C@H]1C(=O)N[C@@H](CO)C(=O)N[C@@H](CO)C(=O)N[C@H](C(=O)N[C@@H](CC(N)=O)C(=O)N[C@H](C(=O)NCC(=O)N1CCC[C@H]1C(=O)N[C@@H](Cc1c[nH]cn1)C(=O)N[C@H](C(=O)N[C@@H](Cc1ccc(O)cc1)C(N)=O)[C@@H](C)O)C(C)C)[C@@H](C)O
notes: Acylated analogue of human amylin; also called compound 58
Rat calcitonin receptor [1]
  Ratio rCT/rAmylin binding: 76.6
Rat calcitonin receptor [2]
  IC50: 10.3 nM
[3]
  IC50: 0.135 nM

B2: N^ε1-[2-[2-[2-[[(4S)-4-carboxy-4-(19-carboxynonadecanoylamino)butanoyl]amino]ethoxy]ethoxy]acetyl]-[Arg17,Pro21,Pro27,Pro34]-h-amylin (peptide)
peptide: K([AEEA-γGlu-C20 diacid])CNTATCATQRLANFLRHSSPNFGAIPSSTNVGPNTY-NH2
modifications: disulfide 2-7; N-terminus assumed
SMILES: CC[C@H](C)[C@H](NC(=O)[C@H](C)NC(=O)CNC(=O)[C@H](Cc1ccccc1)NC(=O)[C@H](CC(N)=O)NC(=O)[C@@H]1CCCN1C(=O)[C@H](CO)NC(=O)[C@H](CO)NC(=O)[C@H](Cc1c[nH]cn1)NC(=O)[C@H](CCCNC(=N)N)NC(=O)[C@H](CC(C)C)NC(=O)[C@H](Cc1ccccc1)NC(=O)[C@H](CC(N)=O)NC(=O)[C@H](C)NC(=O)[C@H](CC(C)C)NC(=O)[C@H](CCCNC(=N)N)NC(=O)[C@H](CCC(N)=O)NC(=O)[C@@H](NC(=O)[C@H](C)NC(=O)[C@@H]1CSSC[C@H](NC(=O)[C@@H](N)CCCCNC(=O)COCCOCCNC(=O)CC[C@H](NC(=O)CCCCCCCCCCCCCCCCCCC(=O)O)C(=O)O)C(=O)N[C@@H](CC(N)=O)C(=O)N[C@@H]([C@@H](C)O)C(=O)N[C@@H](C)C(=O)N[C@@H]([C@@H](C)O)C(=O)N1)[C@@H](C)O)C(=O)N1CCC[C@H]1C(=O)N[C@@H](CO)C(=O)N[C@@H](CO)C(=O)N[C@H](C(=O)N[C@@H](CC(N)=O)C(=O)N[C@H](C(=O)NCC(=O)N1CCC[C@H]1C(=O)N[C@@H](CC(N)=O)C(=O)N[C@H](C(=O)N[C@@H](Cc1ccc(O)cc1)C(N)=O)[C@@H](C)O)C(C)C)[C@@H](C)O
notes: Acylated analogue of human amylin; also called compound 50
Rat calcitonin receptor [1]
  Ratio rCT/rAmylin binding: 81.7
Rat calcitonin receptor [2]
  IC50: 5.63 nM
[3]
  IC50: 0.069 nM
